The record followed here is patent publication US20060154864, “Transcript factor and an Akt substrate related to transcriptional action of insulin and applications of same” (Emory University, published 2006).

The test system of data set [1] is IRE-BP1 C-terminal fragment (3.4-kb cDNA) (Rattus norvegicus). The data set can be described thus: cell_activity.
Data set [2] has as its target NFkB p50 (UniProt P19838 P19838:1-433). In words: EMSA; supershifted by p50 antibody. As to conditions: tags: E. coli-expressed; chain copies: 2; label: 32P.

Sequence of NFkB p50 (P19838 1-433, one chain of several): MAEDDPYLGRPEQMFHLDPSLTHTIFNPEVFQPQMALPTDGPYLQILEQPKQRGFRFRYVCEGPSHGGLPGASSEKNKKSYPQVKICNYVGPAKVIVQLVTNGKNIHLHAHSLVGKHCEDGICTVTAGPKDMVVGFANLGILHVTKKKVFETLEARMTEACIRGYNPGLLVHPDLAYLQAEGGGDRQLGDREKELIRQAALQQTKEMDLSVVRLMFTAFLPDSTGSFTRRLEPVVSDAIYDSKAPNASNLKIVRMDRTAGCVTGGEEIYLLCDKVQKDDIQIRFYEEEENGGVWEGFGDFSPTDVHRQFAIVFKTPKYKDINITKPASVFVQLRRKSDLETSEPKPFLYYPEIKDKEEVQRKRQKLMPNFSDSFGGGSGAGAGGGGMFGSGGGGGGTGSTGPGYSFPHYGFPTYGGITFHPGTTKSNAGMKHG

The molecule “GTTTGTTTTGCTAGT (double strand) [IGFBP-1 IRE]” gave an activity in data set [1] (with insulin, vs 24.7% vector alone, no basal effect, SEQ 50 inferred) of 63.2 % decrease.
As for “GCCTCATTATTCCTGCCCACCAAT (double strand) [IGF-1 IRE]”, in data set [1] (COS-7 luciferase, basal, 3.5-fold with insulin), the activity came out at 4.7 fold.
As to “AATTCAAGGGTATCCAGGAAAGTCTCCTTCAAG (double strand) [IGFBP-3 IRE]”, the activity in data set [1] (COS-7 luciferase, 2-fold on control vector) came to 14 fold.

B1: IGFBP-3 IRE (dsDNA)
DNA 1: AATTCAAGGGTATCCAGGAAAGTCTCCTTCAAG
DNA 2: CTTGAAGGAGACTTTCCTGGATACCCTTGAATT
For the molecule B1, the binding result in data set [2] is listed as “binds”.
